Measurements published in US20230002478A1.

B1: antibody 202-03 (Fc fusion)
chain: EVQLVESGGGLVQPGGSLRLSCAASGFTFSPSWMGWFRQAPGKEREFVATINEYGGRNYADSVKGRFTISADNSKNTAYLQMNSLKPEDTAVYYCARVDRDFDYWGQGTLVTVSS
B2: 6-3 (Fc fusion)
chain: B1 chain
B3: antibody 339-031 (Fc fusion)
chain: EVQLVESGGGLVQPGGSLRLSCAASGSTFSINAMGWFRQAPGKEREFVAGITSSGGYTNYADSVKGRFTISADNSKNTAYLQMNSLKPEDTAVYYCAADGVPEYSDYASGPVWGQGTLVTVSS

Key:
Settings in all cases: remark: other sources report otherwise
[1] = target: S1 RBD fused to mouse Fc, Beta variant (SARS-CoV-2), P0DTC2; assay: flow cytometry: inhibition of S1 RBD-mFc binding to Vero E6 cells (ACE2)
[2] = target: biotinylated SARS-CoV-2 spike RBD (Ancestral) (SARS-CoV-2), P0DTC2; assay: AlphaLISA, inhibition of ACE2-muFc / biotinylated spike complex
[3] = target: biotinylated D614G SARS-CoV-2 spike trimer (SARS-CoV-2), P0DTC2; assay: as above
[4] = target: SARS-CoV-2 S RBD (N439K) (SARS-CoV-2), P0DTC2; assay: SPR
[5] = target: SARS-CoV-2 S1 (D614G) (SARS-CoV-2), P0DTC2; assay: SPR
[6] = target: SARS-CoV-2 S Trimer (SARS-CoV-2), P0DTC2; assay: SPR
[7] = target: SARS-CoV-2 S RBD (E484K) (SARS-CoV-2), P0DTC2; assay: SPR
[8] = target: SARS-CoV-2 S1-Fc (South Africa 178-08) (SARS-CoV-2), P0DTC2; assay: SPR
[9] = target: SARS-CoV-2 S RBD (K417N) (SARS-CoV-2), P0DTC2; assay: SPR
[10] = target: SARS-CoV-2 S RBD (N501Y) (SARS-CoV-2), P0DTC2; assay: SPR
[11] = target: SARS-CoV-2 S RBD (Y453F) (SARS-CoV-2), P0DTC2; assay: SPR
[12] = target: S1 RBD-mFc (Acro SPD-05259) (SARS-CoV-2), P0DTC2; assay: flow cytometry: inhibition of S1 RBD-mFc binding to Vero E6 cells (ACE2)
[13] = target: biotinylated SARS-CoV-2 spike trimer, Delta (SARS-CoV-2), P0DTC2; assay: AlphaLISA, inhibition of ACE2-muFc / biotinylated spike complex

Binder | IC50 [1] [nM] | IC50 [2] [nM] | IC50 [3] [nM] | Kd [4] [nM] | Kd [5] [nM] | Kd [6] [nM] | Kd [7] [nM] | Kd [8] [nM] | Kd [9] [nM] | Kd [10] [nM] | Kd [11] [nM] | IC50 [12] [nM] | IC50 [13] [nM]
B1 | 0.587 | 8.3 | 4 |  |  |  |  |  |  |  |  |  | 
B2 |  |  |  | 9.5 | 19 | 2.4 | 4.6 | 6.1 | 5.9 | 0.71 | 5.7 |  | 
B3 | > 100 | 5.6 | 2.1 |  |  |  |  |  |  |  |  | 1.25 | 3
